The record followed here is paper PMC13328618, “Heritable immunization of mice against Lyme disease enables ecological disease prevention” (Nature Communications, 2026).

Assay [1] concerns the target recombinant outer surface protein A (rOspA) of Borrelia burgdorferi (Borrelia burgdorferi) (UniProt P0CL66).
Assay [2] deals with T1, biotinylated OspA protein (Borrelia burgdorferi, UniProt P0CL66, biotin (site not stated)).
T1 construct: outer surface protein A (OspA), Borrelia burgdorferi; biotinylated for capture on streptavidin biosensors; May be the GenScript rOspA after biotinylation; also called biotinylated OspA proteins
In words: BLI; Octet Red96; biotinylated OspA immobilised on streptavidin biosensors; antibody 3.7-300 nM, 180 s association, 600 s dissociation in PBST with 0.1% bovine serum albumin; global fitting. The settings on record: both partners purified. On the technique in general: BLI is a label-free optical method that tracks binding on a fibre tip over time.

For assay [3], the target named is T2, recombinant outer surface protein A (rOspA) of Borrelia burgdorferi (Borrelia burgdorferi, UniProt P0CL66).
T2 construct: outer surface protein A (OspA), Borrelia burgdorferi; recombinant; source: produced by GenScript
Nature of the assay: ELISA; plates coated with rOspA at 5 µg/mL; mouse serum applied; detection with IgG ELISA detection kit; purified LA-2 IgG2a as standard. Particulars: one partner purified. For orientation: ELISA stands for enzyme-linked immunosorbent assay.

Assay [4] addresses T2, recombinant outer surface protein A …. In words: ELISA; plates coated with 5 µg/mL rOspA; supernatants of transfected Lenti-X 293T cells 72 h after transfection; detection with mouse IgG2b ELISA kit. The settings on record: one partner purified.

T1 sequence (P0CL66 17-273): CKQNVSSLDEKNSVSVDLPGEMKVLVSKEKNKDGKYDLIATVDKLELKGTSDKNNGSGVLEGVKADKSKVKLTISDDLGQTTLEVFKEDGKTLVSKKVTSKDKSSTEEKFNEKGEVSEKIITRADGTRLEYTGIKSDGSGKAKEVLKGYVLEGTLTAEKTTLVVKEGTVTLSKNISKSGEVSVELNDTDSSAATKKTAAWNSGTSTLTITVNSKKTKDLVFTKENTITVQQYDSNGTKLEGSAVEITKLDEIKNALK
T2 sequence (P0CL66 17-273): as above
Chain of recombinant outer surface protein A (rOspA) of Borrelia burgdorferi (Borrelia burgdorferi) (P0CL66 17-273): as above

Regarding “LA-2 scFv-albumin fusion protein expressed in Rosa26-targeted mice”, in assay [1], the xenodiagnosis: engineered (heterozygous) mice free of infection, by spirochetes in larval ticks fed 21 days after challenge with 10 B. burgdorferi-infected nymphs was determined as 80%.

B1: full-length LA-2 IgG2a (antibody, V domains shown)
VH: QIQLVQSGPELKKPGETVKISCKASGYTFTDYSMYWVKQAPGKGLKRMGWINTETGEPTYADDFKGRFALSLDTSASTAYLHISNLKNEDTATYFCARGLDSWGQGTSVTVSS
VL: DIQMTQSPSSLSATLGGKVTITCKASQDINKYIAWYQHKPGKGPRLLIHYTSTLQPGNPSRFSGSGSGRDYSFSISNLEAEDIAIYYCLQYDNLQRTFGGGTKVEIK
notes: LA-2 heavy-chain variable region; mouse IgG2a heavy-chain constant region; LA-2 light-chain variable region; light-chain constant region; IgG2a; plasmid constructed by GenScript; source: Expi293F, transfected, purified (Protein A-Sepharose 4B)
In the case of B1, the binding result in assay [2] is listed as “binds”.

B2: full-length LA-2 monoclonal antibody expressed in liver-specific knock-in mice (antibody, V domains shown)
VH: QIQLVQSGPELKKPGETVKISCKASGYTFTDYSMYWVKQAPGKGLKRMGWINTETGEPTYADDFKGRFALSLDTSASTAYLHISNLKNEDTATYFCARGLDSWGQGTSVTVSS
VL: DIQMTQSPSSLSATLGGKVTITCKASQDINKYIAWYQHKPGKGPRLLIHYTSTLQPGNPSRFSGSGSGRDYSFSISNLEAEDIAIYYCLQYDNLQRTFGGGTKVEIK
notes: LA-2 heavy-chain variable region, as the VH of m3; mouse IgG2a heavy-chain constant region; LA-2 light-chain variable region, as the VL of m3; light-chain constant region; Heavy and light chains are made from one transcript with a T2A element between them; residues of T2A may remain on the chains; also called LA-2 antibodies; source: transgenic Mus musculus (knock-in proximal to the albumin …)
For the molecule B2, the binding result in assay [3] is given as “binds”.

B3: LA-2 scFv-Fc with the top-performing linker … (Fc fusion)
VH: QIQLVQSGPELKKPGETVKISCKASGYTFTDYSMYWVKQAPGKGLKRMGWINTETGEPTYADDFKGRFALSLDTSASTAYLHISNLKNEDTATYFCARGLDSWGQGTSVTVSS
VL: DIQMTQSPSSLSATLGGKVTITCKASQDINKYIAWYQHKPGKGPRLLIHYTSTLQPGNPSRFSGSGSGRDYSFSISNLEAEDIAIYYCLQYDNLQRTFGGGTKVEIK
notes: LA-2 heavy-chain variable region, as the VH of m3; linker between the heavy and light variable regions; LA-2 light-chain variable region, as the VL of m3; source: Lenti-X 293T, transfected (PEI), in supernatant
Turning to B3, the binding result in assay [4] is listed as “binds”.

B4: LA-2 scFv-Fc with Vh-(G4S)3-Vl linker (Fc fusion)
VH: QIQLVQSGPELKKPGETVKISCKASGYTFTDYSMYWVKQAPGKGLKRMGWINTETGEPTYADDFKGRFALSLDTSASTAYLHISNLKNEDTATYFCARGLDSWGQGTSVTVSS
VL: DIQMTQSPSSLSATLGGKVTITCKASQDINKYIAWYQHKPGKGPRLLIHYTSTLQPGNPSRFSGSGSGRDYSFSISNLEAEDIAIYYCLQYDNLQRTFGGGTKVEIK
notes: LA-2 heavy-chain variable region, as the VH of m3; flexible (G4S)3 linker, printed as (G4S)3; LA-2 light-chain variable region, as the VL of m3; Cloned into a modified pcDNA3.4 vector; also called scFv with a Vh-(G4S)3-Vl linker; source: Expi293F, transfected, purified (Protein A-Sepharose 4B)
For the molecule B4, the binding result in assay [2] is listed as “binds”.
